PMC2642718

Molecular target: CD43 (leukosialin) on the surface of primary human neutrophils (human (endogenous in primary neutrophils)) (UniProt P16150)
Sequence of UniProt P16150 (P16150 20-400): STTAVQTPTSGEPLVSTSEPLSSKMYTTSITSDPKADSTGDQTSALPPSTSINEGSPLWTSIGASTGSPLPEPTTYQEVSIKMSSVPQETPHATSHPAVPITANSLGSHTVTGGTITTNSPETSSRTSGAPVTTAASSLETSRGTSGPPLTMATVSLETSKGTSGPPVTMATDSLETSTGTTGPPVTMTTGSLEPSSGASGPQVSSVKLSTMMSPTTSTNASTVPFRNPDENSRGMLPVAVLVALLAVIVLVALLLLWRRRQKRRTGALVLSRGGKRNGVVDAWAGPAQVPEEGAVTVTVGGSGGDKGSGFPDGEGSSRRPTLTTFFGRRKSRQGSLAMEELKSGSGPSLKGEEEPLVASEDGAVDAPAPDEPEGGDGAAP

Substance	migration of human neutrophils across Fbg-coated transwell filters toward fMLP, 25 µg/mL protein (fold reduction)
StcE (Secreted protease of C1-esterase inhibitor), recombinant purified protein (from UniProt O82882 36-898) (enzyme)	1.7
StcE E435D, proteolytically inactive point mutant (from UniProt O82882 36-898) (enzyme)	1.7
